Experimental data published in paper PMC6941876, “White Spot Syndrome Virus Establishes a Novel IE1/JNK/c-Jun Positive Feedback Loop to Drive Replication”.

T1: rLvc-Jun (Litopenaeus vannamei, UniProt A0A0A7W5M9 1-293)
T1 chain: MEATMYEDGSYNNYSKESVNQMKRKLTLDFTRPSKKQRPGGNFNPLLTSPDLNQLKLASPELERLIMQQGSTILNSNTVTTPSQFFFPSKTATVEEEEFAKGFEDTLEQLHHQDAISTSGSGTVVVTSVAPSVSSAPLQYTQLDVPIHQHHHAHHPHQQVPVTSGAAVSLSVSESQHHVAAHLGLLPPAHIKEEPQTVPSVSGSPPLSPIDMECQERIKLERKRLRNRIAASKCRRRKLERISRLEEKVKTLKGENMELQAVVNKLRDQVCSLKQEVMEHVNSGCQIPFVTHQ


Assays:
rLvc-Jun [1] = target: T1, rLvc-Jun; assay: EMSA; EMSA with biotin-labeled probes; buffer, salt, pH and temperature not in the material; conditions: protein: recombinant, tags: GST tag removed with enterokinase, chain copies: 0, blunt
rLvc-Jun [2] = target: T1, rLvc-Jun; assay: competition; 10-, 50-, 100-fold excess over biotin IE1-AP-1-1; EMSA with biotin-labeled probes; buffer, salt, pH and temperature not in the material; conditions: protein: recombinant; tags: GST tag removed with enterokinase; chain copies: 0; label: none; blunt

Binder | binding result (rLvc-Jun [1]; label: biotin) | binding result (rLvc-Jun [1]; label: biotin (probe)) | also measured
249-AP-1 probe (dsDNA) DNA 1: TAGGAATTTCGCTGACGTCAATAAACTGGTTT DNA 2: AAACCAGTTTATTGACGTCAGCGAAATTCCTA | binds | – | –
IE1-AP-1-1 probe (dsDNA) DNA 1: GAAAATGGCTGTTTGAATCATGTTAAGGAATT DNA 2: AATTCCTTAACATGATTCAAACAGCCATTTTC | – | binds | –
IE1-AP-1-2 probe (dsDNA) DNA 1: GGAATTTCCTTGTTACTCATTTATTCCTAGA DNA 2: TCTAGGAATAAATGAGTAACAAGGAAATTCC | – | binds | –
403-AP-1 probe (dsDNA) DNA 1: ATTTCCAAGAATTTTGCTGACGTCAATGGACC DNA 2: GGTCCATTGACGTCAGCAAAATTCTTGGAAAT | binds | – | –
056-AP-1 probe (dsDNA) DNA 1: GTACCAGATGTGAGTCAAACCGTTTCTGG DNA 2: CCAGAAACGGTTTGACTCACATCTGGTAC | binds | – | –
Mut-unBio-IE1-AP-1-1 (dsDNA) DNA 1: GAAAATCGCTGTTCCCATCCTGTTAAGGAATT DNA 2: AATTCCTTAACAGGATGGGAACAGCGATTTTC | – | – | binding result (rLvc-Jun [2]): no binding
